Changes are numbered by the printed parent chain.

This is an account of results in US20260184782A1 (TWIST BIOSCIENCE, published 2026).

Assay [1] has as its target T1, recombinant human TIGIT (human, UniProt Q495A1 22-141, limits assumed).
T1 construct: also called T cell immunoreceptor with Ig and ITIM domains
T1 sequence (looked up): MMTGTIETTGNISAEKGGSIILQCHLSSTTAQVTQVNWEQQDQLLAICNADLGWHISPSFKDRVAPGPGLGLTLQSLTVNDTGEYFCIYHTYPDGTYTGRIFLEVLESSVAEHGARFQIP
Nature of the assay: SPR (Carterra), average. The procedure:
Binding affinities of VHH-Fc proteins to recombinant human TIGIT were measured by SPR using a Carterra instrument (Table 10A). […] Average values reported from measurements from 1-2 samples.

Assay [2] deals with T2, human TIGIT-Fc (human, UniProt Q495A1 22-141, limits assumed).
T2 construct: not shown: Fc; not described
T2 sequence (looked up): T1 sequence (looked up)
Put plainly: CD155 competition ELISA, single point. The procedure: TIGIT/CD155 inhibition of VHH-Fcs were assessed using an ELISA assay (Table 10B). Briefly, human TIGIT-Fc was coated on a plate & then incubated with VHH-Fcs and human CD155-biotin. Bound CD155-biotin was detected using a streptavidin-HRP conjugate visualized with TMB. Strong inhibitors from the single point screen were titrated to determine EC50 (Table 10C).

Assay [3] addresses T3, TIGIT (UniProt Q495A1 22-141, limits assumed).
T3 construct: also called T cell immunoreceptor with Ig and ITIM domains; hTIGIT
T3 sequence (looked up): T1 sequence (looked up)
Nature of the assay: ELISA. On the set-up: unit not given here. In general terms: In an ELISA, binding on a coated surface is turned into a signal by an enzyme label.

Assay [4] concerns the target T3, TIGIT. Nature of the assay: SPR (Carterra).

B1: TIGIT-SC210 (Fc fusion)
VHH: EVQLVESGGGLVQPGGSLRLSCAASGFLFDSYWMVWFRQAPGKEREFVAAIWRSGTLKAYADSVKGRFTISADNSKNTAYLQMNSLKPEDTAVYYCARDHRAMVAPFDYWGQGTLVTVSS
notes: VHH-Fc
By Kd is commonly meant the concentration at which binding is half-saturated. As usually defined, the koff is the rate constant with which the complex falls apart. What is called kon is the rate constant with which the complex forms. For B1, in assay [1], the Kd amounted to 6.33 µM, the off-rate constant (koff) came out at 0.258 s⁻¹ and the kon came out at 40700 M⁻¹ s⁻¹. Further, the “OD (450 nm)” value in assay [2] amounted to 0.516 OD.

B2: TIGIT-SC196 (Fc fusion)
VHH: EVQLVESGGGLVQPGGSLRLSCAASGFAFSSDWMGWFRQAPGKEREWVASVLRGGYTWYADSVKGRFTISADNSKNTAYLQMNSLKPEDTAVYYCATEGLGYWGQGTLVTVSS
notes: VHH-Fc
B2: in assay [1], the dissociation constant Kd is 112 µM, the koff came to 0.00692 s⁻¹ and the kon was 143 M⁻¹ s⁻¹. Further, in assay [2], the “OD (450 nm)” value stood at 0.374 OD.

B3: TIGIT-211-18 (antibody, V domains shown)
VH: EVQLLESGGGLVQPGGSLRLSCAASGFTFGTIPMSWVRQAPGKGLEWVGVIWGGGGTYYADSVKGRFTISRDNSKNTLYLQMNSLRAEDTAVYYCAKAHGNPVSDLSFDYWGQGTLVTVSS
VL: DIQMTQSPSSLSASVGDRVTITCSGDKLGDKYTSWYQQKPGKAPKLLIYHTSRLQDGVPSRFSGSGSGTDFTLTISSLQPEDFATYYCQQSYNLPLTFGQGTKVEIK
B3 came in with an ELISA in assay [3] of 9.7. In assay [4], this molecule returned a Kd of 0.268 µM, a koff of 0.000832 s⁻¹ and a kon of 3110 M⁻¹ s⁻¹.

B4: TIGIT-211-40 (antibody, V domains shown)
VH: EVQLLESGGGLVQPGGSLRLSCAASGFTFSRYAMNWVRQAPGKGLEWVSEISPSGKKKYYADSVKGRFTISRDNSKNTLYLQMNSLRAEDTAVYYCAKSSFDKYNFDYWGQGTLVTVSS
VL: DIQMTQSPSSLSASVGDRVTITCRASQDIGNFLNWYQQKPGKAPKLLIYRTSWLQSGVPSRFSGSGSGTDFTLTISSLQPEDFATYYCQQRSSYPPTFGQGTKVEIK
B4 registered an ELISA in assay [3] of 10.2. In assay [4], this molecule came in with a Kd of 0.392 µM, a koff of 0.0405 s⁻¹ and a kon of 103000 M⁻¹ s⁻¹.

B5: TIGIT-SC138 (Fc fusion)
VHH: EVQLVESGGGLVQPGGSLRLSCAASGFTLENNMMGWFRQAPGKGREFVAAISRSGTLKAYADSVKGRFTISADNSKNTAYLQMNSLKPEDTAVYYCARVRYYYDSSGYFFWFDLWGQGTLVTVSS
notes: VHH-Fc
Consider B5, for which, in assay [1], the Kd was found to be 7.3 µM, the koff worked out at 0.363 s⁻¹ and the association rate constant (kon) was 49700 M⁻¹ s⁻¹. Also, the “OD (450 nm)” value in assay [2] was determined as 0.393 OD.

B6: TIGIT-SC135 (Fc fusion)
VHH: EVQLVESGGGLVQPGGSLRLSCAASGFAFGDSWMGWFRQAPGKEREWVASVLRGGTLRAYAVSVKGRFTISADNSKNAAYLQMNSLKPEDTAVYYCARASIVGTTTLVWGQGTLVTVSS
notes: VHH-Fc
As to B6, in assay [1], the Kd amounted to 1.67 µM, the off-rate (koff) was found to be 0.21 s⁻¹ and the kon is 126000 M⁻¹ s⁻¹. Also, the “OD (450 nm)” value in assay [2] was 0.827 OD.

B7: TIGIT-211-57 (antibody, V domains shown)
VH: EVQLLESGGGLVQPGGSLRLSCAASGLTFPNYGMGWVRQAPGKGLEWVSAISREGRATYYADSVKGRFTISRDNSKNTLYLQMNSLRAEDTAVYYCARVIAAAGAFDYWGQGTLVTVSS
VL: DIQMTQSPSSLSASVGDRVTITCRSSQSLVHSTGNTYLHWYQQKPGKAPKLLIYGKNIRPSGVPSRFSGSGSGTDFTLTISSLQPEDFATYYCQQSYTTPWTFGQGTKVEIK
As for B7, the ELISA in assay [3] is 12.4. In assay [4], this molecule registered a Kd of 3.4 µM, a koff of 0.105 s⁻¹ and a kon of 30800 M⁻¹ s⁻¹.

B8: TIGIT-211-42 (antibody, V domains shown)
VH: EVQLLESGGGLVQPGGSLRLSCAASGFTFNHYGMGWVRQAPGKGLEWVSYISSSGSSTYYADSVKGRFTISRDNSKNTLYLQMNSLRAEDTAVYYCAKGWLGNFDYWGQGTLVTVSS
VL: DIQMTQSPSSLSASVGDRVTITCRASQGVRTSLAWYQQKPGKAPKLLIYGKNIRPSGVPSRFSGSGSGTDFTLTISSLQPEDFATYYCQQSYSFPLTFGQGTKVEIK
In assay [3], B8 showed an ELISA of 8. Also, in assay [4], the affinity, expressed as Kd, was 0.0661 µM; the koff was determined as 0.000643 s⁻¹; the kon came out at 9740 M⁻¹ s⁻¹.

B9: TIGIT-211-43 (antibody, V domains shown)
VH: EVQLLESGGGLVQPGGSLRLSCAASGFTFYDYTMDWVRQAPGKGLEWVSAISGSGGGTSYADSVKGRFTISRDNSKNTLYLQMNSLRAEDTAVYYCARRHWPGGFDYWGQGTLVTVSS
VL: DIQMTQSPSSLSASVGDRVTITCRASQSIRRYLNWYQQKPGKAPKLLIYWASDRESGVPSRFSGSGSGTDFTLTISSLQPEDFATYYCQQSFSTPLTFGQGTKVEIK
For B9, in assay [3], the ELISA was found to be 12. In assay [4], this molecule showed a Kd of 0.819 µM, an off-rate constant (koff) of 0.00117 s⁻¹ and a kon of 1430 M⁻¹ s⁻¹.

B10: TIGIT-211-45 (antibody, V domains shown)
VH: EVQLLESGGGLVQPGGSLRLSCAASGFTFRRYVMGWVRQAPGKGLEWVSEISPSGGYTYYADSVKGRFTISRDNSKNTLYLQMNSLRAEDTAVYYCAKRWTFNTAFDYWGQGTLVTVSS
VL: B9 VL with W50D, D53N, R54L, E55Q, F92Y, S93D, T94F, L96R
As to B10, in assay [3], the ELISA stood at 8.8. Moreover, in assay [4], the Kd came to 0.105 µM, the koff is 0.00125 s⁻¹ and the on-rate constant (kon) is 11900 M⁻¹ s⁻¹.

B11: TIGIT-211-69 (antibody, V domains shown)
VH: EVQLLESGGGLVQPGGSLRLSCAASGFTFGNYRMTWVRQAPGKGLEWVGVIWGGGGTYYADSVKGRFTISRDNSKNTLYLQMNSLRAEDTAVYYCARIFSYALDYWGQGTLVTVSS
VL: B9 VL with S28N, R31S, W50G, D53T, R54L, E55Q, F92Y, S93E, T94N
In assay [3], B11 gave an ELISA of 7.9. In assay [4], the Kd came out at 3.04 µM, the koff is 0.0622 s⁻¹ and the kon is 20400 M⁻¹ s⁻¹.

B12: TIGIT-211-17 (antibody, V domains shown)
VH: EVQLLESGGGLVQPGGSLRLSCAASGFTFAEYSMNWVRQAPGKGLEWVSWISPHGALTYYADSVKGRFTISRDNSKNTLYLQMNSLRAEDTAVYYCARSYGGGFDYWGQGTLVTVSS
VL: DIQMTQSPSSLSASVGDRVTITCRASQTIERRLNWYQQKPGKAPKLLIYQNDKRPSGVPSRFSGSGSGTDFTLTISSLQPEDFATYYCQQSYSIPPTFGQGTKVEIK
In the case of B12, the ELISA in assay [3] was determined as 13.2. In assay [4], this molecule returned a Kd of 0.472 µM, a koff of 0.126 s⁻¹ and a kon of 266000 M⁻¹ s⁻¹.

B13: TIGIT-211-28 (antibody, V domains shown)
VH: EVQLLESGGGLVQPGGSLRLSCAASGFTFSTYAMSWVRQAPGKGLEWVSEISPSGGYTYYADSVKGRFTISRDNSKNTLYLQMNSLRAEDTAVYYCAKVKLGGGPNFDYWGQGTLVTVSS
VL: DIQMTQSPSSLSASVGDRVTITCQGASLRNYYASWYQQKPGKAPKLLIYDTSKVASGVPSRFSGSGSGTDFTLTISSLQPEDFATYYCFQGSHIPYTFGQGTKVEIK
As to B13, the ELISA in assay [3] is 7.2. In assay [4], this molecule gave a Kd of 0.0631 µM, a koff of 0.0016 s⁻¹ and a kon of 25400 M⁻¹ s⁻¹.

B14: TIGIT-211-30 (antibody, V domains shown)
VH: EVQLLESGGGLVQPGGSLRLSCAASGFTFKSYGMHWVRQAPGKGLEWVSAISGSGGGTSYADSVKGRFTISRDNSKNTLYLQMNSLRAEDTAVYYCARAGQWLGDFDYWGQGTLVTVSS
VL: DIQMTQSPSSLSASVGDRVTITCRASQPIGPDLLWYQQKPGKAPKLLIYRKSNRPSGVPSRFSGSGSGTDFTLTISSLQPEDFATYYCQQSYSTPYTFGQGTKVEIK
B14 yielded an ELISA in assay [3] of 8. Further, in assay [4], the Kd was 2.23 µM, the koff was 0.0681 s⁻¹ and the kon turned out to be 30500 M⁻¹ s⁻¹.

B15: TIGIT-211-51 (antibody, V domains shown)
VH: EVQLLESGGGLVQPGGSLRLSCAASGFTFHKYGMAWVRQAPGKGLEWVSTISSGGGYTYYPDSVKGRFTISRDNSKNTLYLQMNSLRAEDTAVYYCARDTYLHFDYWGQGTLVTVSS
VL: B8 VL with G50A, I53N, F94A, L96Y
In assay [3], B15 registered an ELISA of 10.7. In assay [4], this molecule showed a Kd of 0.0965 µM, a koff of 0.0335 s⁻¹ and a kon of 347000 M⁻¹ s⁻¹.

B16: TIGIT-211-35 (antibody, V domains shown)
VH: EVQLLESGGGLVQPGGSLRLSCAASGFTFNAYPMTWVRQAPGKGLEWVSAITGSGGSTYYADSVKGRFTISRDNSKNTLYLQMNSLRAEDTAVYYCARDGSYSSSWYGYWGQGTLVTVSS
VL: DIQMTQSPSSLSASVGDRVTITCSGNKLGDKYASWYQQKPGKAPKLLIYRTSWLQSGVPSRFSGSGSGTDFTLTISSLQPEDFATYYCVARAVRGNPHVLFGQGTKVEIK
The molecule B16 displayed an ELISA in assay [3] of 8.8. In assay [4], this molecule returned a Kd of 0.605 µM, a koff of 0.0406 s⁻¹ and a kon of 67100 M⁻¹ s⁻¹.

B17: TIGIT-SC157 (Fc fusion)
VHH: EVQLVESGGGLVQPGGSLRLSCAASGFTFSPSWMGWFRQAPGKEREWVASVLRGGYTWYADSVKGRFTISADNSKNTAYLQMNSLKPEDTAVYYCTTEGYDFWSGYYDYWGQGTLVTVSS
notes: VHH-Fc
For the molecule B17, in assay [1], the Kd was 302 µM and the koff was 0.0054 s⁻¹. Besides, the “OD (450 nm)” value in assay [2] was 0.414 OD.
